Source: the supplement of paper PMC10065799, “High-throughput profiling of sequence recognition by tyrosine kinases and SH2 domains using bacterial peptide display” (eLife, 2023)

Assays:
AncSZ = experiment: phosphorylation enrichment, bacterial display (enrichment ratio); higher = better substrate or ligand; peptides without Tyr show the background
EPHB1 = EPHB1 (UniProt P54762); experiment: as above
EPHB2 = EPHB2 (UniProt P29323); experiment: as above
FGFR1 = FGFR1 (UniProt P11362); experiment: as above
FGFR3 = FGFR3 (UniProt P22607); experiment: as above
Fer (mouse) = experiment: as above
Fes = Fes (UniProt P07332); experiment: as above
Sequence of Fes (P07332 whole entry, looked up): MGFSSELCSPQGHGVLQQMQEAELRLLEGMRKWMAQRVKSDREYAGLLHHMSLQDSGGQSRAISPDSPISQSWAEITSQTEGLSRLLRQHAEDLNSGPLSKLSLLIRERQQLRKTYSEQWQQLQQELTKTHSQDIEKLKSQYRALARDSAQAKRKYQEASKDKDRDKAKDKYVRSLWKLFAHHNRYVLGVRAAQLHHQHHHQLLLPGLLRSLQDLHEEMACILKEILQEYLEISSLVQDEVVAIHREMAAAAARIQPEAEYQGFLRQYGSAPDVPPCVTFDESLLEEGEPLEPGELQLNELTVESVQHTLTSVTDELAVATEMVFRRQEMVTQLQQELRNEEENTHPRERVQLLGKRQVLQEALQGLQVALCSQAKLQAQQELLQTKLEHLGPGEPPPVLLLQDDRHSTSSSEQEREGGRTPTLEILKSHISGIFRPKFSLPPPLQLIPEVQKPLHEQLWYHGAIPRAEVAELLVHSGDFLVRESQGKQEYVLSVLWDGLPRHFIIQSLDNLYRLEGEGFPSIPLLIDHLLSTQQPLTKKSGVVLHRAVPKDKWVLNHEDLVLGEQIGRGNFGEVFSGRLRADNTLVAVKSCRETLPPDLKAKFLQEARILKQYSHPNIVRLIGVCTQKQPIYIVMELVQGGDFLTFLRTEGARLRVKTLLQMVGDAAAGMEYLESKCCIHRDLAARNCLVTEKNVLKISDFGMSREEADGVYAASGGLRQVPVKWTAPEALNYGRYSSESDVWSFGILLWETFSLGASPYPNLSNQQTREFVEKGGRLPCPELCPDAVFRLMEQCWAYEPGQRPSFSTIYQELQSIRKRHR

Fyn = Fyn (UniProt P06241); experiment: as above
Sequence of Fyn (P06241 whole entry, looked up): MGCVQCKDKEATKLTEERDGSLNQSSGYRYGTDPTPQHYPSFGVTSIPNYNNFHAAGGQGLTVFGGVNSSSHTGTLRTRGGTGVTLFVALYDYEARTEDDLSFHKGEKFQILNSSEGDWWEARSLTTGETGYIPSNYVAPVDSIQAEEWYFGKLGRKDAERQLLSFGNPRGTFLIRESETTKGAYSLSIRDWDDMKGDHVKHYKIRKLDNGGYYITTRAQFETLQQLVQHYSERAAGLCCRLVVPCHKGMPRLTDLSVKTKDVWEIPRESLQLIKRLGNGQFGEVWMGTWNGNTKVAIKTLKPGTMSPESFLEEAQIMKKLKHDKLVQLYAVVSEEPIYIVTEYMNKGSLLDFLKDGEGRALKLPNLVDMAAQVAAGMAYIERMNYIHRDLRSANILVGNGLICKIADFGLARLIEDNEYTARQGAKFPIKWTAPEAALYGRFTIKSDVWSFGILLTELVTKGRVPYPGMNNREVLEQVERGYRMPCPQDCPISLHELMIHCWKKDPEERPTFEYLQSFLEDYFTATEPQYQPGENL

Hck = Hck (UniProt P08631); experiment: as above
Sequence of Hck (P08631 whole entry, looked up): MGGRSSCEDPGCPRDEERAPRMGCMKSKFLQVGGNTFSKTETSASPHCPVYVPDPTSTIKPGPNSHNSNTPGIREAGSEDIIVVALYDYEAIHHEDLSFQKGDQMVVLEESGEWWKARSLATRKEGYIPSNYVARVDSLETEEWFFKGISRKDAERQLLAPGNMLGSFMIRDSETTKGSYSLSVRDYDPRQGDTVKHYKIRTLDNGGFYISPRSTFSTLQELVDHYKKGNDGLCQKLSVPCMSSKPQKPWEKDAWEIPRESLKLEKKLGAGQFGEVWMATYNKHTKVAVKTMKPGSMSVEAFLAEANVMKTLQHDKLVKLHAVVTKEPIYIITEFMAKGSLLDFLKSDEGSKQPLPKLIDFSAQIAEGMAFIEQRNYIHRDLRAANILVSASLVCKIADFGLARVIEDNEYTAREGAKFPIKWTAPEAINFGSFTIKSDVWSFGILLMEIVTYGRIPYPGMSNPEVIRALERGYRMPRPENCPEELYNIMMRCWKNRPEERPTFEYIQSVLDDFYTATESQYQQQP

Jak2 = Jak2 (UniProt O60674); experiment: as above
Sequence of Jak2 (O60674 whole entry, looked up): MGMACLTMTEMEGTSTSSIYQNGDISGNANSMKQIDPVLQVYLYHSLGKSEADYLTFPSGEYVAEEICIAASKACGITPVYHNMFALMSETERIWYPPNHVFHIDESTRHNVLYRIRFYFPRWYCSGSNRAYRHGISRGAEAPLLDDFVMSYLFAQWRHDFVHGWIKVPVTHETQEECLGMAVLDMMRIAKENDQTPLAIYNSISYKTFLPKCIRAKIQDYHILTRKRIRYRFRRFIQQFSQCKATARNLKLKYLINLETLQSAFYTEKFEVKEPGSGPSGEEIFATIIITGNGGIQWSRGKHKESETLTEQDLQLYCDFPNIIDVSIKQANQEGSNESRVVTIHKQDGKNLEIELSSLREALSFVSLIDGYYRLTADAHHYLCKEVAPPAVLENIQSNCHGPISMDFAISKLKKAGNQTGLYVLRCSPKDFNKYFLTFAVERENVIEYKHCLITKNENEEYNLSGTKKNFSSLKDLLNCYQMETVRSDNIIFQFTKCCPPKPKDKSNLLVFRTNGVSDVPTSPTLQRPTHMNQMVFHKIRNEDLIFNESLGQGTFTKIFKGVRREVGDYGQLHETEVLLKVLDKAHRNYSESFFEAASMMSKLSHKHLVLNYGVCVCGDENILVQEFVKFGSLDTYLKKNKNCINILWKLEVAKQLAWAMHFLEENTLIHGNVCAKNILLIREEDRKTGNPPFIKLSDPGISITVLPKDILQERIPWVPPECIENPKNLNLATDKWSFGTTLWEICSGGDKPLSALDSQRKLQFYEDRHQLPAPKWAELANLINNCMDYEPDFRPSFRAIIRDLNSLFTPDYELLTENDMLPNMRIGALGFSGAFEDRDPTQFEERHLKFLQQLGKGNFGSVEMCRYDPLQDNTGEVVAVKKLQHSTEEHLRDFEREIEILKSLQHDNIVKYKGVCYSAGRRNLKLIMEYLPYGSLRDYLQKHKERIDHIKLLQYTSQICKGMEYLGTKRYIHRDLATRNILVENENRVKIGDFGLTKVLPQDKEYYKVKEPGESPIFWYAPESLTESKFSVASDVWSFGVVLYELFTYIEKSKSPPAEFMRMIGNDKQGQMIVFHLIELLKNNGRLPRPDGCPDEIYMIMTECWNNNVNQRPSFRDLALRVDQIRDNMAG

MERTK = MERTK (UniProt Q12866); experiment: as above
c-Abl (mouse) = experiment: as above
c-Src = experiment: as above
Grb2 SH2 = Grb2 SH2 (UniProt P62993); experiment: SH2 binding enrichment of the phosphorylated peptide, bacterial display (enrichment ratio); higher = better substrate or ligand; peptides without Tyr show the background
SHP2-C SH2 = experiment: as above
c-Src SH2 = experiment: as above
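For SH2 binding enrichment of the phosphorylated peptide, bacterial display in this document: peptide library displayed on the E. coli surface as eCPX fusions, selected cells deep-sequenced, score is each peptide's frequency after selection divided by its frequency in the input.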
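For phosphorylation enrichment, bacterial display in this document: 11-residue human phosphosite peptides and single-mutation variants displayed on the E. coli surface, counted by deep sequencing, each peptide's frequency after selection divided by its frequency in the unselected input library; frequency after pTyr selection over input frequency; kinase dosed for 20-30% of maximal phosphorylation in three min.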

Sequence of EPHB1 (P54762 whole entry, looked up): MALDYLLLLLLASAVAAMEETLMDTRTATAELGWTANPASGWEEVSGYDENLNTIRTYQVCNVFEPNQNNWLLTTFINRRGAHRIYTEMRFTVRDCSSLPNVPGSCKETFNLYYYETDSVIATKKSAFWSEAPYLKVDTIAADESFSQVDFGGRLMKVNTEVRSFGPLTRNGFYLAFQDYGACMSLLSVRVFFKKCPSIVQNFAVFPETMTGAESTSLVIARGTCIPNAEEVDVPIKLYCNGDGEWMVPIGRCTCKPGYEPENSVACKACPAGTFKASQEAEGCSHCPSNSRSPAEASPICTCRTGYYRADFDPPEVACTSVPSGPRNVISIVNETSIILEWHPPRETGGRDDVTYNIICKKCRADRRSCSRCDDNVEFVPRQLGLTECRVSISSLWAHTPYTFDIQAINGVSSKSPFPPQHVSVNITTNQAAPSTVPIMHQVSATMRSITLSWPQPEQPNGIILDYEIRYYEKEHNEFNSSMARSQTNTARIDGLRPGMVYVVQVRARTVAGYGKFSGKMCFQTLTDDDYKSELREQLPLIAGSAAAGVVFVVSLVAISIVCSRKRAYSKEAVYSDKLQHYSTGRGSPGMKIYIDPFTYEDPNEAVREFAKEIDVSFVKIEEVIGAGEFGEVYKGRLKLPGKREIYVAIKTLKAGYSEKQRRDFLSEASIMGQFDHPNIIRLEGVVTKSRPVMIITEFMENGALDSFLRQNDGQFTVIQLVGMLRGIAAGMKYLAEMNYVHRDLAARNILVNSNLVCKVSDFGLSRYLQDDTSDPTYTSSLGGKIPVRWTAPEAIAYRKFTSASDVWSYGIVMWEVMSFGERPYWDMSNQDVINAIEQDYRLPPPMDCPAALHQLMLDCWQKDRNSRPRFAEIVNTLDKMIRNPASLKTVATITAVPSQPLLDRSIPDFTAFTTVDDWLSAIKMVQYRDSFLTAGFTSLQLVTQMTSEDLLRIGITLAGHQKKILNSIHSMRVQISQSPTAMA
Sequence of EPHB2 (P29323 whole entry, looked up): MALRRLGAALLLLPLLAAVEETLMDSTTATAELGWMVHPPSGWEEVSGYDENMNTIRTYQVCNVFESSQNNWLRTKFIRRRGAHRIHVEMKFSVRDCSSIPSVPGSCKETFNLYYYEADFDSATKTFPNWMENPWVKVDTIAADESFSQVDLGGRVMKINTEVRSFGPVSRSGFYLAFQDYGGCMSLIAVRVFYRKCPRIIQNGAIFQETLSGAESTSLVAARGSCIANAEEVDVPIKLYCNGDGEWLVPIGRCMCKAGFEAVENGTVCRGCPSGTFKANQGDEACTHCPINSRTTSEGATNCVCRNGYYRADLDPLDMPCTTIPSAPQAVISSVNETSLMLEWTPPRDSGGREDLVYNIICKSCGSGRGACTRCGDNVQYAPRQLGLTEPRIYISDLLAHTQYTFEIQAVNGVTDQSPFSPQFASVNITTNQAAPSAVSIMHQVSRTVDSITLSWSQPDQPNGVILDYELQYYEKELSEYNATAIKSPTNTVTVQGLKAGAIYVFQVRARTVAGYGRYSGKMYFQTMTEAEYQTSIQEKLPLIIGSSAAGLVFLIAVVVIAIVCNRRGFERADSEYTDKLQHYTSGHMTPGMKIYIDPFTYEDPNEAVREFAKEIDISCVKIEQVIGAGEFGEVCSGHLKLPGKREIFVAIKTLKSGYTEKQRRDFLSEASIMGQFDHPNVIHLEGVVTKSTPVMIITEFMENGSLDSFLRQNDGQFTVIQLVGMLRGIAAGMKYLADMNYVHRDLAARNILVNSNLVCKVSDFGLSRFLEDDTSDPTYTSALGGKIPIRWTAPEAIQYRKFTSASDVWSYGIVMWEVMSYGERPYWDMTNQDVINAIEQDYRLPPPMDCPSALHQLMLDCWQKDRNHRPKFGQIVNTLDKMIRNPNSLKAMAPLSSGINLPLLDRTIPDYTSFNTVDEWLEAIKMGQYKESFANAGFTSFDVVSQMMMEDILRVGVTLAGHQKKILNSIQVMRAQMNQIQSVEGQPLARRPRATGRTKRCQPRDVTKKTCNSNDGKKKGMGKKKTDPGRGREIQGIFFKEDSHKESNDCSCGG

Row | Sequence | phosphorylation enrichment (AncSZ) | phosphorylation enrichment (EPHB1) | phosphorylation enrichment (EPHB2) | phosphorylation enrichment (FGFR1) | phosphorylation enrichment (FGFR3) | phosphorylation enrichment (Fer (mouse)) | phosphorylation enrichment (Fes) | phosphorylation enrichment (Fyn) | phosphorylation enrichment (Hck) | phosphorylation enrichment (Jak2) | phosphorylation enrichment (MERTK) | phosphorylation enrichment (c-Abl (mouse)) | phosphorylation enrichment (c-Src) | SH2 binding enrichment (Grb2 SH2) | SH2 binding enrichment (SHP2-C SH2) | SH2 binding enrichment (c-Src SH2)
1 | EFNLMYHGTKE [IRF6_Y97_D98H] | 0.923 | 0.631 | 0.645 | 0.489 | 0.579 | 0.451 | 0.94 | 0.463 | 0.455 | 0.744 | 0.442 | 0.593 | 0.545 | 0.827 | 0.784 | 0.656
2 | SVVVPYKPPEV [TP53_Y220_E221K] | 0.915 | 0.501 | 0.461 | 0.477 | 0.448 | 0.471 | 0.792 | 0.458 | 0.421 | 0.761 | 0.517 | 0.584 | 0.596 | 0.795 | 0.599 | 0.546
3 | GKVFIYHGSSL [ITGA7_Y458] | 1.19 | 0.655 | 0.614 | 0.596 | 0.761 | 0.546 | 1.3 | 0.42 | 0.571 | 1.02 | 0.364 | 0.672 | 0.369 | 0.996 | 0.707 | 0.598
4 | INNIDYYKKTT [FGFR2_Y656] | 0.808 | 0.461 | 0.506 | 0.524 | 0.473 | 0.334 | 0.876 | 0.425 | 0.486 | 0.618 | 0.501 | 0.627 | 0.426 | 0.743 | 0.364 | 0.415
5 | SETDDYAEIID [PTK2_Y397] | 1.53 | 0.877 | 0.838 | 0.748 | 1.01 | 0.688 | 1.6 | 0.573 | 0.702 | 1.57 | 0.625 | 1.05 | 0.744 | 1.04 | 0.627 | 0.561
6 | KEAALYPHLLP [SQSTM1_Y383_P387L] | 0.648 | 0.427 | 0.544 | 0.512 | 0.481 | 0.419 | 0.757 | 0.405 | 0.438 | 0.649 | 0.432 | 0.549 | 0.366 | 0.87 | 0.645 | 0.436
7 | NFRTTCVNANE [KCNH2_Y475_Y475C] | 0.974 | 0.53 | 0.605 | 0.528 | 0.619 | 0.464 | 0.955 | 0.53 | 0.483 | 0.979 | 0.423 | 0.808 | 0.428 | 0.723 | 0.536 | 0.387
8 | KRFAFYRDSPR [FOXE3_Y108_E103K] | 0.538 | 0.327 | 0.387 | 0.443 | 0.479 | 0.421 | 0.643 | 0.446 | 0.387 | 0.482 | 0.437 | 0.526 | 0.414 | 1.14 | 0.974 | 0.81
9 | PICEGYALPHA [ACTC1_Y171_Y168C] | 0.946 | 0.488 | 0.587 | 0.682 | 0.598 | 0.577 | 0.804 | 0.707 | 0.535 | 0.453 | 0.445 | 0.897 | 0.406 | 0.951 | 0.918 | 4.74
10 | GMAHNYRNRSQ [AASS_Y188_S191R] | 0.599 | 0.414 | 0.388 | 0.344 | 0.401 | 0.358 | 0.629 | 0.487 | 0.523 | 0.488 | 0.466 | 0.57 | 0.481 | 0.703 | 0.392 | 0.48
11 | WISNRYLDFSS [PRPH2_Y184] | 0.961 | 0.505 | 0.535 | 0.564 | 0.676 | 0.499 | 0.946 | 0.524 | 0.577 | 0.894 | 0.54 | 0.793 | 0.705 | 0.871 | 0.688 | 0.62
12 | ETPSEYLEIVR [TMEM130_Y412] | 1.17 | 0.848 | 0.608 | 0.645 | 0.77 | 0.493 | 1.01 | 0.555 | 0.652 | 1.01 | 0.452 | 0.652 | 0.49 | 0.605 | 0.573 | 0.443
13 | IKGNMYYENSY [EGFR_Y112_R108K] | 0.746 | 0.469 | 0.583 | 0.535 | 0.641 | 0.609 | 0.874 | 0.503 | 0.462 | 0.591 | 0.946 | 0.632 | 0.54 | 6.83 | 0.713 | 4.57
14 | GVRYTYTIDGS [DCX_Y105_I104T] | 0.986 | 0.562 | 0.623 | 0.521 | 0.758 | 0.429 | 1.08 | 0.543 | 0.483 | 0.981 | 0.447 | 0.634 | 0.56 | 1.07 | 5.17 | 1.43
15 | DPGVSYRTREE [PDHA1_Y301] | 0.891 | 0.385 | 0.61 | 0.637 | 0.53 | 0.368 | 0.809 | 0.409 | 0.461 | 0.549 | 0.378 | 0.647 | 0.376 | 0.744 | 0.844 | 0.732
